Experiments:
[1] = biological target: rHuman CD44/Fc Chimera, CF (R&D Systems Cat#3660-CD) (human) (UniProt P16070); assay: MSD ECL multi-spot plate; Fab 14.375 nM; blank spot 738
[2] = biological target: rHuman EGF R/Fc Chimera, CF (R&D Systems Cat#344-ER) (human) (UniProt P00533); assay: as above
[3] = biological target: rHuman HGF R/c-MET/Fc Chimera, CF (R&D Systems Cat#358-MT/CF) (human) (UniProt P08581); assay: as above
[4] = biological target: rHuman ErbB2/Fc Chimera, CF (R&D Systems Cat#1129-ER) (human) (UniProt P04626); assay: as above
[5] = biological target: rHuman IGF-1 sR (IGF-1 sR), CF (R&D Systems Cat#391-GR) (human) (UniProt P08069); assay: as above
[6] = biological target: rHuman Erythropoietin R/Fc Chimera, CF (R&D Systems Cat#963-ER) (human) (UniProt P19235); assay: as above
Chain of rHuman Erythropoietin R/Fc Chimera, CF (R&D Systems Cat#963-ER) (human) (P19235 25-250, change not shown): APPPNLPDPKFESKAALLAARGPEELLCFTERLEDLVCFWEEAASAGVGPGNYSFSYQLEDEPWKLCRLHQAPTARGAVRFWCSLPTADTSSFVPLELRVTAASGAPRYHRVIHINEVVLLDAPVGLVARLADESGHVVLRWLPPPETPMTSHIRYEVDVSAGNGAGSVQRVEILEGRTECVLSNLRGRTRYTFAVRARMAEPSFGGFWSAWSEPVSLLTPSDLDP

[7] = biological target: rHuman CD44/Fc Chimera, CF (R&D Systems Cat#3660-CD) (human) (UniProt P16070); assay: MSD ECL multi-spot plate; Fab 230 nM; blank spot 1656
[8] = biological target: rHuman EGF R/Fc Chimera, CF (R&D Systems Cat#344-ER) (human) (UniProt P00533); assay: as above
[9] = biological target: rHuman HGF R/c-MET/Fc Chimera, CF (R&D Systems Cat#358-MT/CF) (human) (UniProt P08581); assay: as above
[10] = biological target: rHuman ErbB2/Fc Chimera, CF (R&D Systems Cat#1129-ER) (human) (UniProt P04626); assay: as above
[11] = biological target: rHuman IGF-1 sR (IGF-1 sR), CF (R&D Systems Cat#391-GR) (human) (UniProt P08069); assay: as above
[12] = biological target: rHuman Erythropoietin R/Fc Chimera, CF (R&D Systems Cat#963-ER) (human) (UniProt P19235); assay: as above
[13] = biological target: rHuman CD44/Fc Chimera, CF (R&D Systems Cat#3660-CD) (human) (UniProt P16070); assay: MSD ECL multi-spot plate; Fab 57.5 nM; blank spot 954
[14] = biological target: rHuman EGF R/Fc Chimera, CF (R&D Systems Cat#344-ER) (human) (UniProt P00533); assay: as above
[15] = biological target: rHuman HGF R/c-MET/Fc Chimera, CF (R&D Systems Cat#358-MT/CF) (human) (UniProt P08581); assay: as above
[16] = biological target: rHuman ErbB2/Fc Chimera, CF (R&D Systems Cat#1129-ER) (human) (UniProt P04626); assay: as above
[17] = biological target: rHuman IGF-1 sR (IGF-1 sR), CF (R&D Systems Cat#391-GR) (human) (UniProt P08069); assay: as above
[18] = biological target: rHuman Erythropoietin R/Fc Chimera, CF (R&D Systems Cat#963-ER) (human) (UniProt P19235); assay: as above
[19] = biological target: rHuman EGF R/Fc Chimera, CF (R&D Systems Cat#344-ER) (human) (UniProt P00533); assay: MSD ECL multi-spot assay, antigen spotted on plate, Fab 0.93 uM; blank spot 4760
[20] = biological target: rHuman CD44/Fc Chimera, CF (R&D Systems Cat#3660-CD) (human) (UniProt P16070); assay: MSD ECL multi-spot plate; Fab 920 nM; blank spot 4082
[21] = biological target: rHuman EGF R/Fc Chimera, CF (R&D Systems Cat#344-ER) (human) (UniProt P00533); assay: as above
[22] = biological target: rHuman HGF R/c-MET/Fc Chimera, CF (R&D Systems Cat#358-MT/CF) (human) (UniProt P08581); assay: as above
[23] = biological target: rHuman ErbB2/Fc Chimera, CF (R&D Systems Cat#1129-ER) (human) (UniProt P04626); assay: as above
[24] = biological target: rHuman IGF-1 sR (IGF-1 sR), CF (R&D Systems Cat#391-GR) (human) (UniProt P08069); assay: as above
[25] = biological target: rHuman Erythropoietin R/Fc Chimera, CF (R&D Systems Cat#963-ER) (human) (UniProt P19235); assay: as above

“Fab VH1-46_IGHD3-10*01_IGHJ4*01 & L12_IGKJ1*01” was tested, and the ECL signal [1] was 1490 ECL signal, the ECL signal [2] was 2670 ECL signal and the ECL signal [3] was 1600 ECL signal. It also gave an ECL signal [4] of 1590 ECL signal, an ECL signal [5] of 1750 ECL signal and an ECL signal [6] of 2720 ECL signal. It also gave an ECL signal [7] of 3820 ECL signal, an ECL signal [8] of 5720 ECL signal and an ECL signal [9] of 3930 ECL signal. The ECL signal [10] was 4080 ECL signal, the ECL signal [11] was 4760 ECL signal and the ECL signal [12] was 6950 ECL signal. It also gave an ECL signal [13] of 2310 ECL signal, an ECL signal [14] of 3860 ECL signal and an ECL signal [15] of 2300 ECL signal. The ECL signal [16] was 2450 ECL signal, the ECL signal [17] was 2830 ECL signal and the ECL signal [18] was 4040 ECL signal. It also gave an ECL signal [19] of 15600, an ECL signal [20] of 9700 ECL signal and an ECL signal [21] of 13400 ECL signal. It also gave an ECL signal [22] of 10700 ECL signal, an ECL signal [23] of 10900 ECL signal and an ECL signal [24] of 10200 ECL signal. It also gave an ECL signal [25] of 16400 ECL signal.

Source: patent publication US20120058906A1
